Source: paper PMC6396024, “Artemin and an Artemin-Derived Peptide, Artefin, Induce Neuronal Survival, and Differentiation Through Ret and NCAM” (Frontiers in Molecular Neuroscience, 2019)
Bridge positions count the residues as written; N and C are the ends. Ends that are not written are not given here. I, II: the chains in the order shown.

T1: recombinant human GFRα3/Fc (human, UniProt O60609 32-374)
T1 construct: GDNF family receptor alpha-3 (GFRα3), human; Commercial Fc chimera; also called GFL receptor α3; source: bought: R&D Systems
T1 sequence (looked up): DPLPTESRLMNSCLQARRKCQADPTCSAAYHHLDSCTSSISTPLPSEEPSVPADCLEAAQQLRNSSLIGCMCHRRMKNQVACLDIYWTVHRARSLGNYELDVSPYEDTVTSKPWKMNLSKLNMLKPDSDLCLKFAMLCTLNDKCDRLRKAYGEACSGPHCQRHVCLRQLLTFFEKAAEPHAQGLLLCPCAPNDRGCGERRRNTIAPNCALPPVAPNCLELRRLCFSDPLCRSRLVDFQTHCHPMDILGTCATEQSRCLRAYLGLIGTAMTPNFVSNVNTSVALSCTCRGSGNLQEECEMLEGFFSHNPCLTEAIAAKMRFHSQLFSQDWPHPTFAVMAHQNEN

B1: recombinant human Artemin (ARTN) (ligand, UniProt Q5T4W7 108-220, looked up)
chain: AGGPGSRARAAGARGCRLRSQLVPVRALGLGHRSDELVRFRFCSGSCRRARSPHDLSLASLLGAGALRPPPGSRPVSQPCCRPTRYEAVSFMDVNSTWRTVDRLSATACGCLG
notes: Artemin (ARTN), human, UniProt D3DPX9; source: bought: R&D Systems

How the values were obtained:
[1] = system: GFRα2; experiment: SPR binding to immobilized GFRα2/Fc; details: artefin 15.6 μM
[2] = system: GFRα1; experiment: SPR binding to immobilized GFRα1/Fc; details: artefin 15.6 μM
[3] = target: T1, recombinant human GFRα3/Fc; experiment: SPR; Biacore 2000, 25°C, HBS-EP (10 mM HEPES pH 7.4, 150 mM NaCl, 3 mM EDTA, 0.005% P20); ARTN (~2300 RU) or artefin (~1600 RU) amine-coupled on a CM4 chip; serially diluted GFRα3/Fc or NCAM Ig1–3 injected at 20 μl/min; 1:1 interaction model or steady-state affinity analysis; details: both partners purified
[4] = target: T2, recombinant rat NCAM Ig1–3 (rat, UniProt P13596 20-308); experiment: as above; details: both partners purified
T2 construct: neural cell adhesion molecule (NCAM), rat, Ig1–3 domains; also called NCAM Ig1–3 domain; source: recombinant, produced as described previously (Soroka et al., 2003)
T2 sequence (P13596 20-308): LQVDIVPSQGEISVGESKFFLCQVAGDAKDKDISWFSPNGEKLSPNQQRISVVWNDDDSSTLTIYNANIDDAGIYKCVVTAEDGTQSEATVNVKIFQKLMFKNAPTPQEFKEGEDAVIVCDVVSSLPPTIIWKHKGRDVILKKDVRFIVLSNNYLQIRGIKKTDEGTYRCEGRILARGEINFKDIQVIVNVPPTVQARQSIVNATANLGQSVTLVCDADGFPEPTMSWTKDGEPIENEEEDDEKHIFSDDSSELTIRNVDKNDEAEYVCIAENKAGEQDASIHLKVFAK

[5] = system: GFRα2; set-up: method as in Scott and Ibañéz, 2001; details: previously shown; ref Scott and Ibañéz, 2001; cited from earlier work
[6] = system: patients with lumbosacral radiculopathy; details: intravenous, Phase 2; particularly at the lowest dose; ref Backonja et al., 2017; cited from earlier work
Text: (§1) Results from Phase 1 clinical trials ([Rolan et al., 2015]; [Okkerse et al., 2016]) further support the application of ARTN for treatment of peripheral nerve injury and attenuation of neuropathic pain. A recent Phase 2 trial (SPRINT) that evaluated the sa ...

[7] = system: surgically and chemically induced nerve injury models; details: systemic treatment; ref Gardell et al., 2003; Bennett et al., 2006; Wang et al., 2008; Wong et al., 2015; cited from earlier work
Text: as §1

[8] = system: mice; details: intracerebroventricular, ref Mannelli et al., 2011; cited from earlier work
Text: (§2) Artemin (ARTN) is a member of the glial cell line-derived neurotrophic factor family ligands (GFLs) which includes three other members: glial cell line-derived neurotrophic factor (GDNF), neurturin (NRTN), and persephin (PSPN) ([Baloh et al., 1998b]; [Airaksinen and Saarma, 2002]). GFLs affect the generation, survival, and growth of neurons in different CNS neuronal populations, including midbrain dopaminergic neurons, central motor neurons, and noradrenergic neurons ([Airaksinen and Saarma, 2002]). Similar to GDNF, ARTN is a potential neuroprotective agent as it promotes the survival of dopam ...

[9] = system: dopaminergic neurons; details: in vitro; ref Rosenblad et al., 2000; Sariola and Saarma, 2003; cited from earlier work
Text: as §2

[10] = system: GFRα1; set-up: method as in Scott and Ibañéz, 2001; details: previously shown; ref Scott and Ibañéz, 2001; cited from earlier work

Molecule | binding to GFRα2 [1] | binding to GFRα1 [2] | Kd [3] | Kd [4] | interaction with GFRα2 [5] | reducing pain in patients with lumbosacral radiculopathy [6] | effect on behavioral symptoms of neuropathic pain [7] | antidepressant effects [8] | survival of dopaminergic neurons [9] | interaction with GFRα1 [10]
I: RSPHDLSLASLLGAGKK-NH2 / II: RSPHDLSLASLLGAGK / III: RSPHDLSLASLLGAG / IV: RSPHDLSLASLLGAG (amide I:16-IV:C, I:17-II:C, II:16-III:C; C-terminus assumed) [artefin] | binds to GFRα1 and GFRα2 | binds to GFRα1 |  |  |  |  |  |  |  | 
B1 |  |  | 0.0027 µM | 13 µM | previously been shown to interact with GFRα1and GFRα2 | showed evidence of pain relief | mitigates behavioral symptoms associated with neuropathic pain | dose-dependent antidepressant effects | promotes the survival of dopaminergic neurons in vitro | previously been shown to interact with GFRα1
